# Assay results: patent US20100310640A1
# T1: HLA-DR DRB1*0101 (human)
# T1 chain 1: not shown
# T1 chain 2: not shown
# T2: HLA-DR DRB1*0401 (human)
# T2 chain 1: not shown
# T2 chain 2: not shown
# T3: HLA-DR DRB1*0404 (human)
# T3 chain 1: not shown
# T3 chain 2: not shown
# T4: HLA-DR DRB1*0405 (human)
# T4 chain 1: not shown
# T4 chain 2: not shown
# T5: HLA-DR DRB1*0701 (human)
# T5 chain 1: not shown
# T5 chain 2: not shown
# T6: HLA-DR DRB1*1101 (human)
# T6 chain 1: not shown
# T6 chain 2: not shown
# T7: HLA-DR DRB1*1302 (human)
# T7 chain 1: not shown
# T7 chain 2: not shown
# T8: HLA-DR DRB4*0101 (human)
# T8 chain 1: not shown
# T8 chain 2: not shown
# T9: HLA-DR DRB5*0101 (human)
# T9 chain 1: not shown
# T9 chain 2: not shown
# B1: CEA.570 peptide 9012.0135 (peptide)
# peptide: VCGIQNSVSANRSDP
# B2: CEA.92 peptide 9019.0111 (peptide)
# peptide: GPAYSGREIIYPNAS
# B3: Peptide 9019.0184 (peptide)
# peptide: TMNMLGGGGSAGRKP
# B4: Cyclin D1.129 (peptide)
# peptide: DNSIRPEELLQMELL
# B5: Peptide 9019.0098 (peptide)
# peptide: AKGLQSLPTHDPSPL
# B6: CEA.81 peptide 9019.0110 (peptide)
# peptide: GYVIGTQQATPGPAY
# B7: CEA.603 peptide 9012.0137 (peptide)
# peptide: SSYLSGANLNLSCHS
# B8: Peptide 9019.0178 (peptide)
# peptide: AEVLFRCPPCTPERL
# B9: Cyclin D1.19 peptide 9019.0146 (peptide)
# peptide: DANLLNDRVLRAMLK
# B10: Her2/neu.158 (peptide)
# peptide: NPQLCYQDTILWKDI
# B11: Peptide 9019.0090 (peptide)
# peptide: GVTVWELMTFGAKPY
# B12: Peptide 9019.0100 (peptide)
# peptide: PEYVNQPDVRPQPPS
# B13: Peptide 9019.0186 (peptide)
# peptide: KELAVFREKVTEQHR
# B14: Her2/neu.146 (peptide)
# peptide: TEILKGGVLIQRNPQ
# B15: CEA.688 peptide 9019.05 (peptide)
# peptide: TVGIMIGVLVGVALI
# B16: CEA.671 peptide 9919.0143 (peptide)
# peptide: SITVSASGTSPGLSA
# B17: Peptide 9019.0190 (peptide)
# peptide: ERGPLEHLYSLHIPN
# B18: CEA.680 peptide 9019.0144 (peptide)
# peptide: SPGLSAGATVGIMIG
# B19: Her/neu.3 (peptide)
# peptide: LAALCRWGLLLALLP
# B20: CEA.624 peptide 9019.0138 (peptide)
# peptide: QYSWRINGIPQQHTQ
# B21: CEA.629 peptide 9019.0139 (peptide)
# peptide: INGIPQQHTQVLFIA
# B22: Her2/neu.126 (peptide)
# peptide: TTPVTGASPGGLREL
# B23: Cyclin D1.209 (peptide)
# peptide: VAAVQGLNLRSPNNF
# B24: Peptide 9019.0181 (peptide)
# peptide: GARMPCAELVREPGC
# B25: CEA.239 peptide 9919.0121 (peptide)
# peptide: APTISPLNTSYRSGE
# B26: Cyclin D1.56 (peptide)
# peptide: MRKIVATWMLEVCEE
# B27: Cyclin D1.251 (peptide)
# peptide: IEALLESSLRQAQQN
# B28: Her/neu.52 (peptide)
# peptide: GCQVVQGNLELTYLP
# B29: Peptide 9019.0101 (peptide)
# peptide: EGPLPAARPAGATLE
# B30: Peptide 9019.0179 (peptide)
# peptide: PERLAACGPPPVAPP
# B31: Peptide 9019.0188 (peptide)
# peptide: EPKKLRPPPARTPCQ
# B32: CEA.123 peptide 9019.0119 (position 226) (peptide)
# peptide: SDSVILNVLYGPDAP
# B33: Cyclin D1.24 peptide 9019.0147 (peptide)
# peptide: NDRVLRAMLKAEETC
# B34: Her/neu.47 (peptide)
# peptide: RHLYQGCQVVQGNLE
# B35: Peptide 1622.04 (peptide)
# peptide: ICTIDVYMIMVKCWM
# B36: Peptide 9019.0096 (peptide)
# peptide: FRELVSEFSRMARDP
# B37: Her2/neu.263 (peptide)
# peptide: ICELHCPALVTYNTD
# B38: CEA.119 peptide 9019.0114 (peptide)
# peptide: FYTLHVIKSDLVNEE
# B39: 9019.0085 (peptide)
# peptide: HRDLAARNVLVKSPN
# B40: 9019.0046 (peptide)
# peptide: LREVRAVTSANIQEF
# B41: 9019.0078 (peptide)
# peptide: MAGVGSPYVSRLLGI
# Biological target: T1, HLA-DR DRB1*0101 (human)
# Experiment: radioligand inhibition, purified HLA-DR
# Details: remark: other sources report otherwise
row,IC50 [µM],Binder
1,0.044,B1
2,9.44,B2
3,1.02,B3
4,4.55,B4
5,0.149,B5
6,0.021,B6
7,0.04,B7
8,1.28,B8
9,1.46,B9
10,3.65,B10
11,0.04,B11
12,6.17,B12
13,2.04,B13
14,0.011,B14
15,0.384,B15
16,2.81,B16
17,0.0077,B17
18,3.51,B18
19,2.04,B19
20,0.472,B20
21,0.682,B21
22,0.992,B22
23,0.044,B23
24,0.164,B24
25,2.43,B25
26,0.764,B26
27,2.61,B27
28,2.6,B28
29,17.3,B29
30,0.028,B30

# Biological target: T2, HLA-DR DRB1*0401 (human)
# Experiment: radioligand inhibition, purified HLA-DR
# Details: remark: other sources report otherwise
row,IC50 [µM],Binder
1,0.806,B31
2,13,B2
3,0.255,B32
4,1.96,B33
5,0.791,B3
6,4.68,B4
7,0.422,B34
8,0.717,B35
9,0.031,B6
10,0.58,B7
11,0.022,B36
12,0.04,B14
13,0.075,B16
14,4.19,B18
15,5.39,B19
16,0.043,B20
17,0.181,B21
18,0.295,B25
19,0.754,B37
20,7.95,B26
21,0.018,B27
22,2.74,B28
23,5.54,B30

# Biological target: T3, HLA-DR DRB1*0404 (human)
# Experiment: radioligand inhibition, purified HLA-DR
# Details: remark: other sources report otherwise
row,IC50 [µM],Binder
1,0.029,B1
2,2.8,B4
3,0.169,B38
4,0.034,B6
5,0.051,B36
6,0.0041,B11
7,0.026,B13
8,0.032,B14
9,0.011,B16
10,0.029,B17
11,0.675,B22
12,13.1,B24
13,0.04,B25

# Biological target: T4, HLA-DR DRB1*0405 (human)
# Experiment: radioligand inhibition, purified HLA-DR
# Details: remark: other sources report otherwise
row,IC50 [µM],Binder
1,1.55,B1
2,16.5,B4
3,0.955,B35
4,0.041,B38
5,3.86,B5
6,7.82,B7
7,2.11,B11
8,0.76,B14
9,3.57,B16
10,0.11,B17
11,0.311,B20
12,0.942,B21
13,13.2,B22
14,5.99,B25

# Biological target: T5, HLA-DR DRB1*0701 (human)
# Experiment: radioligand inhibition, purified HLA-DR
# Details: remark: other sources report otherwise
row,IC50 [µM],Binder
1,5.26,B2
2,5.24,B32
3,6.18,B3
4,6.65,B4
5,4.94,B34
6,0.056,B38
7,4.46,B5
8,1.71,B6
9,16,B8
10,5.05,B36
11,2.49,B14
12,4.45,B15
13,1.56,B16
14,0.018,B17
15,0.092,B18
16,8,B19
17,0.031,B21
18,10.6,B25
19,0.249,B26
20,1.97,B28
21,7.46,B29

# Biological target: T6, HLA-DR DRB1*1101 (human)
# Experiment: radioligand inhibition, purified HLA-DR
# Details: remark: other sources report otherwise
row,IC50 [µM],Binder
1,9.21,B32
2,6.81,B5
3,0.381,B36
4,0.692,B14
5,3.32,B16
6,0.151,B20

# Biological target: T7, HLA-DR DRB1*1302 (human)
# Experiment: radioligand inhibition, purified HLA-DR
# Details: remark: other sources report otherwise
row,IC50 [µM],Binder
1,0.921,B1
2,0.154,B2
3,0.083,B32
4,5.69,B3
5,0.939,B4
6,5.04,B34
7,3.99,B5
8,0.043,B6
9,0.037,B7
10,5.77,B8
11,0.286,B9
12,5.07,B10
13,8.86,B11
14,0.343,B14
15,5.64,B15
16,0.592,B16
17,0.08,B18
18,0.704,B19
19,6.05,B22
20,0.125,B25
21,3.22,B37
22,0.356,B26
23,10.2,B29

# Biological target: T8, HLA-DR DRB4*0101 (human)
# Experiment: radioligand inhibition, purified HLA-DR
# Details: remark: other sources report otherwise
row,IC50 [µM],Binder
1,0.612,B32
2,0.087,B4
3,0.022,B38
4,0.572,B5
5,0.063,B6
6,0.042,B7
7,12.1,B15
8,2.59,B18
9,2.29,B20
10,2.7,B21
11,4.7,B24
12,0.441,B37
13,0.281,B26

# Biological target: T9, HLA-DR DRB5*0101 (human)
# Experiment: radioligand inhibition, purified HLA-DR
# Details: remark: other sources report otherwise
row,IC50 [µM],Binder
1,0.036,B1
2,4.5,B38
3,10.2,B6
4,14.1,B7
5,0.38,B36
6,1.88,B14
7,0.384,B15
8,15.1,B16
9,4,B17
10,3,B22
11,2.81,B37
12,17,B26

# Biological target: T1, HLA-DR DRB1*0101 (human)
# Experiment: radiolabeled-peptide inhibition, purified HLA-DR
# Details: remark: other sources report otherwise
row,IC50 [µM],Binder
1,0.158,B39
2,0.017,B40

# Biological target: T2, HLA-DR DRB1*0401 (human)
# Experiment: radiolabeled-peptide inhibition, purified HLA-DR
# Details: remark: other sources report otherwise
row,IC50 [µM],Binder
1,0.401,B39

# Biological target: T4, HLA-DR DRB1*0405 (human)
# Experiment: radiolabeled-peptide inhibition, purified HLA-DR
# Details: remark: other sources report otherwise
row,IC50 [µM],Binder
1,11.2,B39

# Biological target: T5, HLA-DR DRB1*0701 (human)
# Experiment: radiolabeled-peptide inhibition, purified HLA-DR
# Details: remark: other sources report otherwise
row,IC50 [µM],Binder
1,0.352,B41

# Biological target: T7, HLA-DR DRB1*1302 (human)
# Experiment: radiolabeled-peptide inhibition, purified HLA-DR
# Details: remark: other sources report otherwise
row,IC50 [µM],Binder
1,0.116,B39

# Biological target: T9, HLA-DR DRB5*0101 (human)
# Experiment: radiolabeled-peptide inhibition, purified HLA-DR
# Details: remark: other sources report otherwise
row,IC50 [µM],Binder
1,0.094,B40
